We go through 2 molecules from patent US20220340666A1.

For this test, the target named is endogenous Galectin-9 on CRL-2134 cells (human) (UniProt O00182). In words: cell-based binding assay, flow cytometry on CRL-2134 cells. (In flow cytometry, cells or beads pass a laser one at a time.)
endogenous Galectin-9 on CRL-2134 cells (human), sequence (O00182 whole entry): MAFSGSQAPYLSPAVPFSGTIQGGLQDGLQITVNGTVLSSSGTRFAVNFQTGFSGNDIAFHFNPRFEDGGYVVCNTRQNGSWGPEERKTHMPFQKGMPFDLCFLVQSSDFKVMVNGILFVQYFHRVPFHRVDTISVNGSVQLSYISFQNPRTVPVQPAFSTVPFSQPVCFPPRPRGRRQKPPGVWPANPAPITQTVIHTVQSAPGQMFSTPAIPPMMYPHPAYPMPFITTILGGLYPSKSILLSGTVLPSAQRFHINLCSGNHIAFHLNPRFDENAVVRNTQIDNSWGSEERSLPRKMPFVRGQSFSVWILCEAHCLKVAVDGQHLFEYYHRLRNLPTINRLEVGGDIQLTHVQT

B1: G9.2-17 hIgG1 (antibody, V domains shown)
VH: EVQLVESGGGLVQPGGSLRLSCAASGFTVSSSSIHWVRQAPGKGLEWVAYISSSSGYTYYADSVKGRFTISADTSKNTAYLQMNSLRAEDTAVYYCARYWSYPSWWPYRGMDYWGQGTLVTVSS
VL: DIQMTQSPSSLSASVGDRVTITCRASQSVSSAVAWYQQKPGKAPKLLIYSASSLYSGVPSRFSGSRSGTDFTLTISSLQPEDFATYYCQQSSTDPITFGQGTKVEIKR
On to B1, for which the dissociation constant (Kd) (in general, the concentration at which binding is half-saturated) was 0.41 nM.

B2: G9.2-17 mIgG1 (antibody, V domains shown)
VH: EVQLVESGGGLVQPGGSLRLSCAASGFTVSSSSIHWVRQAPGKGLEWVAYISSSSGYTYYADSVKGRFTISADTSKNTAYLQMNSLRAEDTAVYYCARYWSYPSWWPYRGMDYWGQGTLVTVSS
VL: DIQMTQSPSSLSASVGDRVTITCRASQSVSSAVAWYQQKPGKAPKLLIYSASSLYSGVPSRFSGSRSGTDFTLTISSLQPEDFATYYCQQSSTDPITFGQGTKVEIKR
B2 gave a Kd of 2.91 nM.
